Target: recombinant ZgHAD, L-2-haloacid dehalogenase of Zobellia galactanivorans Dsij^T (Zobellia galactanivorans Dsij^T)
Assay: SEC; gel filtration on HiLoad 16/600 Superdex 200 pg after nickel affinity purification; oligomeric state of the recombinant protein in solution

## recombinant ZgHAD, L-2-haloacid dehalogenase of Zobellia galactanivorans Dsij^T (enzyme)
  stoichiometry N: 2
